Reference: patent US20230295259A1 (Protagonist Therapeutics, Inc., priority 2020, published 2023)
Positions of bridges follow the written chain, without caps; N, C: chain ends. Non-standard residues stand in square brackets, D forms with d. Groups on a side chain read outwards from the residue. Primed or numbered codes have the meaning given here. *: point of attachment. 2Peg11′ = —[C(O)—CH2—CH2—(OCH2CH2)12—NH]— (PEG12 unit); PEG12 = NCCOCCOCCOCCOCCOCCOCCOCCOCCOCCOCCOCCOCCC(=O)O; Dip = N[C@H](C(=O)O)C(c1ccccc1)c1ccccc1; Palmitoyl = CCCCCCCCCCCCCCCC(=O)*; β3hF = N[C@H](CC(=O)O)Cc1ccccc1; Isovaleryl = CC(C)CC(=O)*; Npc = nipecotic acid; Ahx = NCCCCCC(=O)O

T1: human ferroportin (SLC40A1) fused in frame with GFP, stably expressed in HEK293 cells (human, UniProt Q9NP59 1-571)
T1 sequence (looked up): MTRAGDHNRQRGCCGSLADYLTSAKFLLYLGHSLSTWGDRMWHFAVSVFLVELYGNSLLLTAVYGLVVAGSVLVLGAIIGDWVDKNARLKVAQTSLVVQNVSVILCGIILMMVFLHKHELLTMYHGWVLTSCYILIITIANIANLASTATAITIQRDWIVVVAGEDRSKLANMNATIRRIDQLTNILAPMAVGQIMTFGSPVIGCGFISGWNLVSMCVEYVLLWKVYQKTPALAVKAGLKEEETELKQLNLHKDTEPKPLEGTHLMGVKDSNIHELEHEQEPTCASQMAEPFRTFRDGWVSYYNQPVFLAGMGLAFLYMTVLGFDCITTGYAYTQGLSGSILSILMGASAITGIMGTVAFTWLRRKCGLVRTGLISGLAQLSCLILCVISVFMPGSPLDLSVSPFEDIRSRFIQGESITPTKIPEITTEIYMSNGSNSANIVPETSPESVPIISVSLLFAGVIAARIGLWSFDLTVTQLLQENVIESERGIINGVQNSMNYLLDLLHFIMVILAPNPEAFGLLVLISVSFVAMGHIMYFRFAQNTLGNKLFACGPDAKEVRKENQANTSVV

T2: ferroportin endogenously expressed on T47D human breast carcinoma cells (human, UniProt Q9NP59 1-571)
T2 sequence (looked up): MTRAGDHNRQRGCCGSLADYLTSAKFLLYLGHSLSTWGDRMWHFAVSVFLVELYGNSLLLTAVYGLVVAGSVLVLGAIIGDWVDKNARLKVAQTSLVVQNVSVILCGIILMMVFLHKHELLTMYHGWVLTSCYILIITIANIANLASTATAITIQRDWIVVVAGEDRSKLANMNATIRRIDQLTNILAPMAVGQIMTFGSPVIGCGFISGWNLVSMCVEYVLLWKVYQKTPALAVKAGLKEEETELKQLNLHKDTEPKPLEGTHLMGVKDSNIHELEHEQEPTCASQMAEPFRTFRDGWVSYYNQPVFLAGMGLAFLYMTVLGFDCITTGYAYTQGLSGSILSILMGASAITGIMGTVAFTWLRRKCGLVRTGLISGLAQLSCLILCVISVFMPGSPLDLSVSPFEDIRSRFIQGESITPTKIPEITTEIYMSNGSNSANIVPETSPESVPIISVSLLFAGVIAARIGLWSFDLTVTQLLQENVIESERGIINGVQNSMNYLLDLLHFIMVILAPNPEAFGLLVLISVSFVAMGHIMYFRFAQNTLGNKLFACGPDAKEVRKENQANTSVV

B1: Compound 113 (peptide)
peptide: XETHXPCIXXXC
modifications: Isovaleric Acid-E-T-H-[Dpa]-P-[Cys]-I-[Lys(2Peg11′_C18_Diacid)]-[bhPhe]-[(D)Lys]-[Cys]-NH2
B2: Compound 123 (peptide)
peptide: XETHXPCIXXXCX
modifications: Isovaleric Acid-E-T-H-[Dpa]-P-[Cys]-I-[Lys(Ac)]-[bhPhe]-[(D)Lys(Ac)]-[Cys]-[(D)Glu]-NH2
B3: Compound 12 (peptide)
peptide: XETHXPCIXXXC
modifications: Isovaleric Acid-E-T-H-[Dpa]-P-[Cys]-I-[Lys(1Peg2_1Peg2_Ahx_C18_Diacid)]-[bhPhe]-[(D)Lys]-[Cys]-NH2
B4: Compound 27 (peptide)
peptide: Isovaleryl-ETH[Dip]PCI[dK][β3hF]K([PEG12-Palmitoyl])RC-NH2
modifications: disulfide 6-12 (inferred)
B5: Compound 2 (peptide)
peptide: XETHXPCIXXXXC
modifications: Isovaleric Acid-E-T-H-[Dpa]-P-[Cys]-I-[(D)Lys]-[Dpa]-[Lys(2Peg11′_Palm)]-[(D)Lys]-[Cys]-NH2
B6: Compound 42 (peptide)
peptide: Isovaleryl-ETH[Dip]PCIK(Ac)[β3hF]KRC-NH2
modifications: disulfide 6-12 (inferred)
B7: Compound 46 (peptide)
peptide: Isovaleryl-ETH[Dip]PCIK(Ac)[β3hF]K(2Peg20K)RC-NH2
modifications: disulfide 6-12 (inferred)
B8: Compound 47 (peptide)
peptide: Isovaleryl-ETH[Dip]PCIK([2Peg11′-Palmitoyl])[β3hF]K(2Peg20K)RC-NH2
modifications: disulfide 6-12 (inferred)
B9: Compound 50 (peptide)
peptide: Isovaleryl-ETH[Dip]PCIK(2Peg20K)[β3hF]K([PEG12-Palmitoyl])RC-NH2
modifications: disulfide 6-12 (inferred)
B10: Compound 51 (peptide)
peptide: Isovaleryl-ETH[Dip]PCIK([Ahx-PEG20K])[β3hF]RC-NH2
modifications: disulfide 6-11 (inferred)
B11: Compound 5 (peptide)
peptide: Isovaleryl-ETH[Dip][Npc]CI[dK][β3hF]K([Ahx-Palmitoyl])[dK]C-NH2
modifications: disulfide 6-12 (inferred)
B12: Compound 98 (peptide)
peptide: XETHXPCIXXXC
modifications: not fully specified; [Diacid_C18_isoGlu_PEG2_PEG2]-E-T-H-[Dpa]-P-[Cys]-I-[(D)Lys]-[bhPhe]-[(D)Lys]-[Cys]-NH2
B13: Compound 99 (peptide)
peptide: XETHXPCIXXXC
modifications: [C18_diacid_Ahx_PEG2_PEG2]-E-T-H-[Dpa]-P-[Cys]-I-[(D)Lys]-[bhPhe]-[(D)Lys]-[Cys]-NH2
B14: Compound 6 (peptide)
peptide: XETHXPCIXXXXC
modifications: Isovaleric Acid-E-T-H-[Dpa]-P-[Cys]-I-[(D)Lys]-[bhPhe]-[Lys(Ahx_Palm)]-[(D)Lys]-[Cys]-NH2
B15: Compound 19 (peptide)
peptide: XETHXPCIXXXXC
modifications: Isovaleric Acid-E-T-H-[Dpa]-P-[Cys]-I-[(D)Lys(2Peg11′_OMe)]-[bhPhe]-[Lys(Ahx_Palm)]-[(D)Lys(2Peg11′_OMe)]-[Cys]-NH2
B16: Compound 53 (peptide)
peptide: XETHXPCIXXXC
modifications: Isovaleric Acid-E-T-H-[(4F)Phe]-P-[Cys]-I-[Lys(2Peg11′_Palm)]-[bhPhe]-[(D)Lys]-[Cys]-NH2
B17: Compound 202 (peptide)
peptide: XETXXPCIXXXC
modifications: Isovaleric Acid-E-T-[His_1Me]-[Dpa]-P-C-I-[Lys(PEG12_Palm)]-[bhPhe]-[(D)Lys]-C-NH2

target: T1, human ferroportin (SLC40A1) fused in …; test: cell-based or functional assay

Q: B1 was tested. Which “FPN EC50” value did it give?
A: 8.06 nM

Q: How did the “FPN EC50” value turn out when B2 was run?
A: 90 nM

Q: How did the “FPN EC50” value turn out when B3 was run?
A: 9.81 nM

Q: With B4 as the binder, how does the “FPN EC50” value read?
A: 20 nM

Q: How did the “FPN EC50” value turn out when B5 was run?
A: 5 nM

Q: With B6 as the binder, how does the “FPN EC50” value read?
A: > 3000 nM

Q: For B7, which “FPN EC50” value is on record?
A: > 3000 nM

Q: For B8, which “FPN EC50” value is on record?
A: 58.2 nM

Q: For B9, which “FPN EC50” value is on record?
A: 3.31 nM

Q: For B10, which “FPN EC50” value is on record?
A: 103 nM

Q: B11 was tested. Which “FPN EC50” value did it give?
A: 2.88 nM

Q: Which “FPN EC50” value does the source give for B12 here?
A: > 3000 nM

Q: B13 was tested. Which “FPN EC50” value did it give?
A: > 3000 nM

target: T2, ferroportin endogenously expressed on …; test: cell-based or functional assay

Q: For B14, which “IC50: T47D Internalization MSA” value is on record?
A: 1.95 nM

Q: With B15 as the binder, how does the “IC50: T47D Internalization MSA” value read?
A: 2.56 nM

Q: B16 was tested. Which “IC50: T47D Internalization MSA” value did it give?
A: 1.3 nM

Q: For B17, which “IC50: T47D Internalization MSA” value is on record?
A: 4.3 nM
